Experimental findings from article PMC9890520 are described below.

The target of assay [1] is human EGFR.Fc (extracellular domain of EGFR) (human) (UniProt P00533). The assay can be described thus: SPR. On the technique in general: In SPR one partner is held on a chip, and binding of the other changes the refractive index at the surface.
Assay [2] deals with human HER2.Fc (extracellular domain of HER2) (human) (UniProt P04626). The assay can be described thus: SPR.

pKd: −log10 of the molar value.

In assay [1], Z_(EGFR:1907) (designed binder) gave a pKd of 8.15, a koff of 0.000666 s⁻¹ and a kon of 94300 M⁻¹ s⁻¹.

As to Z_(HER2:342) (designed binder), in assay [2], the pKd is 10.12, the koff came to 0.000111 s⁻¹ and the on-rate constant (kon) was found to be 1.45e+06 M⁻¹ s⁻¹.

On to Z_(HER2:342).BirA* (designed binder), for which, in assay [2], the pKd is 10.96, the koff amounted to 1.14e-07 s⁻¹ and the kon worked out at 10400 M⁻¹ s⁻¹.

Usually pKd stands for the negative decadic logarithm of the Kd, by convention in mol/L. Usually koff stands for the first-order rate constant of dissociation. Usually kon stands for the second-order rate constant of association. Lower therefore signals slower complex formation.
